{"source": "patent US6703198", "target": "full-length murine Notch1 expressed on 32D myeloid progenitor cells (murine) (UniProt Q01705)", "sequence (Q01705 19-2531)": "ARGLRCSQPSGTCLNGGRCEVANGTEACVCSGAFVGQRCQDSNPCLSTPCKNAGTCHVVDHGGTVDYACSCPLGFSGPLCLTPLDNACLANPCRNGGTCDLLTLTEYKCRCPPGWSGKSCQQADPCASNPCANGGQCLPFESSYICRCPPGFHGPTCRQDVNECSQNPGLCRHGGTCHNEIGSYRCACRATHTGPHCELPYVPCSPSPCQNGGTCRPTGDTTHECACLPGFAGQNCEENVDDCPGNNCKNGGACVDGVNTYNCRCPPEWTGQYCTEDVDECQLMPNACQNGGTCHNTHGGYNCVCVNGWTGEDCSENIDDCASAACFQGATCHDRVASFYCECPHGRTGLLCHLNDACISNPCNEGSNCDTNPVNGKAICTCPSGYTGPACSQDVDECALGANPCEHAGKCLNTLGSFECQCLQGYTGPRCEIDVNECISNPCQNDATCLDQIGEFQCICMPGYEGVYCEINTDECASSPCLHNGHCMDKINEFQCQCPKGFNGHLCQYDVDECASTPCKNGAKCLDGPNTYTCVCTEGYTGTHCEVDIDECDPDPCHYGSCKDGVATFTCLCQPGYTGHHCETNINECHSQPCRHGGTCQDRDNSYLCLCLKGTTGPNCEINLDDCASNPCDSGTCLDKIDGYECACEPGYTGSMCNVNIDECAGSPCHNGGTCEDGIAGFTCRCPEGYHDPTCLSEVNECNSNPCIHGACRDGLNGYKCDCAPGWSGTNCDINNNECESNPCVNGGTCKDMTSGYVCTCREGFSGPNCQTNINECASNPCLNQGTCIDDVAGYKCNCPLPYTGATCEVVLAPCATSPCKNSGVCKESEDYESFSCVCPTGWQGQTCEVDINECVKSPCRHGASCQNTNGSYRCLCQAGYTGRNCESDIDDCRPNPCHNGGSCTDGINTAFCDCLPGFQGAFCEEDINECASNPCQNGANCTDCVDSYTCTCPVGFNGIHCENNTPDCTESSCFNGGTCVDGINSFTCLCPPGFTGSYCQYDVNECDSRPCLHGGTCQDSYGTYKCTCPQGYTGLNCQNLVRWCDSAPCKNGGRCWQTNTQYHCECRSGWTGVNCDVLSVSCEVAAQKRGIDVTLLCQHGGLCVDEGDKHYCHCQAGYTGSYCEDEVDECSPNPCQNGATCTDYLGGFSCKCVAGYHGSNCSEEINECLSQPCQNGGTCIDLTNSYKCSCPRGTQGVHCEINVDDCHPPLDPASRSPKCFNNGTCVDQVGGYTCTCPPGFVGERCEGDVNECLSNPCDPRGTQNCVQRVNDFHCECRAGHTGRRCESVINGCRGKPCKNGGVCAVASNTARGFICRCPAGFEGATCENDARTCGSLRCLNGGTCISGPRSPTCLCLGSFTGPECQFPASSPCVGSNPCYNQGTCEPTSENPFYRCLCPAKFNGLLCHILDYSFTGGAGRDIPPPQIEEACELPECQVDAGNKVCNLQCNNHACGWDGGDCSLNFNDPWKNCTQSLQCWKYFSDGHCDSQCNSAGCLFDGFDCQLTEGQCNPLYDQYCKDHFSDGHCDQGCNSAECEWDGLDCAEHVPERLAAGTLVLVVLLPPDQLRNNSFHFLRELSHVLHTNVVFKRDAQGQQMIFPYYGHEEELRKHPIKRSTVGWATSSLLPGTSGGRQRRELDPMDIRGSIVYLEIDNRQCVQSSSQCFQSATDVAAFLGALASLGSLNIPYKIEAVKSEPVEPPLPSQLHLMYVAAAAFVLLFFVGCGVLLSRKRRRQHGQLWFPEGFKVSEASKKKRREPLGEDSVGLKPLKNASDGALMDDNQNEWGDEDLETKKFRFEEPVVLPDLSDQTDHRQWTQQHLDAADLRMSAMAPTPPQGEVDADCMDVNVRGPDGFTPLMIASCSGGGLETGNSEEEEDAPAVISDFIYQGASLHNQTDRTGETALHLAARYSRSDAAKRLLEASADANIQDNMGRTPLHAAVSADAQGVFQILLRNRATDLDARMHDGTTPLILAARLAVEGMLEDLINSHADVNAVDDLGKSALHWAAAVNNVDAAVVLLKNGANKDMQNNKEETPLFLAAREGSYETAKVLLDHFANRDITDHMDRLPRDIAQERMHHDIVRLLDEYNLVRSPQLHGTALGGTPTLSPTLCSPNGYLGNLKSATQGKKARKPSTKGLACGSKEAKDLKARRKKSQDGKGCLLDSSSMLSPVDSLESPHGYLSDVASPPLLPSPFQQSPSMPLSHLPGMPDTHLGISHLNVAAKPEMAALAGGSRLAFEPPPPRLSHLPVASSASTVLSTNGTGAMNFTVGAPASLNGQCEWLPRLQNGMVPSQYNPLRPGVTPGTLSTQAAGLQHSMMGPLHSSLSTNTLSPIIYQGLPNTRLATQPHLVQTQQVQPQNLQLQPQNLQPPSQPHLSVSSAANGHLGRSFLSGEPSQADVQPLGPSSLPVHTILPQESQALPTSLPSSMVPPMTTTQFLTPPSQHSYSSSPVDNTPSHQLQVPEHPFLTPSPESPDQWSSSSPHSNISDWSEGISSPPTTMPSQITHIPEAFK", "assay": "cell-based or functional assay", "data": [{"substance": "human JAGGED1 (hJAGGED1) expressed on HS-27a human bone marrow stromal cells (from UniProt P78504 22-1218) (ligand)", "values": [{"measurement": "Replating efficiency (FL Notch1 32D clones after 6 days on HS-27a with G-CSF)", "value": 190, "unit": "%"}, {"measurement": "percent of full-length Notch1-expressing 32D cells mature by day 6 on HS-27a in G-CSF", "value": 20, "unit": "%"}, {"measurement": "percent of full-length Notch1-expressing 32D cells remaining undifferentiated by day 6 on HS-27a in G-CSF", "value": 40, "unit": "%"}]}]}
